Assay results from paper PMC8706816, “Hydrogen Sulfide Improves the Cold Stress Resistance through the CsARF5-CsDREB3 Module in Cucumber”.

Biological target: T1, CsARF5-HIS (Cucumis sativus, UniProt A0A0A0LE69 1-948)
T1 sequence: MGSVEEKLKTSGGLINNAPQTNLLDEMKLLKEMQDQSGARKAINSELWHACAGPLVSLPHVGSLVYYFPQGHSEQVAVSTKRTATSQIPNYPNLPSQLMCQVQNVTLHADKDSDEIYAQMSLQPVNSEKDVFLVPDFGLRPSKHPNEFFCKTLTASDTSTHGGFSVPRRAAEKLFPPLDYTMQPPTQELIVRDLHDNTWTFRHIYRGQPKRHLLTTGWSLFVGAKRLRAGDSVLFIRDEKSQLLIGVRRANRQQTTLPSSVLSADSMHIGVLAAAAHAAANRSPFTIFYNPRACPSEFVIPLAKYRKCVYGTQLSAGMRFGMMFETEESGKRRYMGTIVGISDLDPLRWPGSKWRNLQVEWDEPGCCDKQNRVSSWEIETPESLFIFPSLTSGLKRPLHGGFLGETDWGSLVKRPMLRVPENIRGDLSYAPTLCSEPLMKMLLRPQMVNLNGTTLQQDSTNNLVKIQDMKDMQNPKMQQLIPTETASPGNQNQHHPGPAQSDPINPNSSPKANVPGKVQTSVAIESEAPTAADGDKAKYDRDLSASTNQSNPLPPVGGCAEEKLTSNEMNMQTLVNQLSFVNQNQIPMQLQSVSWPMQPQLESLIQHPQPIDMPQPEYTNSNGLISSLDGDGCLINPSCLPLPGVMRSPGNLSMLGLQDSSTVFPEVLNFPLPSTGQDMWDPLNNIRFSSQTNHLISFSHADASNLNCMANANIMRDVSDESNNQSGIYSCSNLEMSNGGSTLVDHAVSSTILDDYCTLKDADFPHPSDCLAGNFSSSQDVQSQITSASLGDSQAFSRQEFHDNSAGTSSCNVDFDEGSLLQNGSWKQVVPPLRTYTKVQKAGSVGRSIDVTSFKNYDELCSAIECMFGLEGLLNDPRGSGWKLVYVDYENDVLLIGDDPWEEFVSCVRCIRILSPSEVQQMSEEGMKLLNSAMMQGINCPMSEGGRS
Test: EMSA; EMSA: protein and probe incubated at 24 °C for 30 min, nondenaturing acrylamide gel; buffer, salt and pH not stated
Settings: protein: recombinant; tags: His; label: biotin

B1: CsDREB3 promoter probe (dsDNA)
DNA 1: ATCGGGGTAAGAGACATTAAGAAACA
DNA 2: TGTTTCTTAATGTCTCTTACCCCGAT
Question: Does B1 bind?
Answer: binds
